Data from patent publication US20200339678A1 (RIGEL PHARMACEUTICALS, published 2020).
Residue numbers refer to the chain shown, from its start.

T1: His-tagged recombinant Human TIGIT (human, UniProt Q495A1 22-141)
T1 construct: also called VSIG9; VSTM3; not shown: His tag
T1 sequence (looked up): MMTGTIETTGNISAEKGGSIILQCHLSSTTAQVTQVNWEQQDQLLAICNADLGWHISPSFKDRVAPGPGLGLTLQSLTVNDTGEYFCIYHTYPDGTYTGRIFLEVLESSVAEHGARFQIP

T2: His-tagged recombinant Mouse TIGIT (mouse, UniProt P86176 29-148, limits assumed)
T2 construct: not shown: His tag
T2 sequence (looked up): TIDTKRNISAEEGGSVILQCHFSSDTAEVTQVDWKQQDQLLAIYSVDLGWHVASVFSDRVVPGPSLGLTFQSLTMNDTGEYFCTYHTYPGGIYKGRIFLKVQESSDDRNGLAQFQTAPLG

B1: Ab4 (Fab, V domains shown)
VH: EVQLLESGGGLVQPGGSLRLSCAASGFTFDSYGMNWVRQAPGKGLEWVASIKYSSGYKYYADSVKGRFTISRDNSKNTLYLQMNSLRAEDTAVYYCARGPYDVWMDYWGQGTLVTVSS
VL: not shown
notes: ARG set
B2: Ab6 (Fab, V domains shown)
VH: EVQLLESGGGLVQPGGSLRLSCAASGFTFSDYSMSWVRQAPGKGLEWVARISSSSSYKSYADSVKGRFTISRDNSKNTLYLQMNSLRAEDTAVYYCAREPYSVWLDYWGQGTLVTVSS
VL: not shown
notes: ARE set
B3: Ab12 (Fab, V domains shown)
VH: B2 VH with D31S, S33A, R50S, S52N, S54N, S55G, S56G, S102G, V103T
VL: not shown
notes: ARE set
B4: Ab25 (Fab, V domains shown)
VH: EVQLLESGGGLVQPGGSLRLSCAASGFTFSSYGMHWVRQAPGKGLEWVAAIKSSGSSTSYADSVKGRFTISRDNSKNTLYLQMNSLRAEDTAVYYCARVPYGYWMDYWGQGTLVTVSS
VL: not shown
notes: ARV set
B5: Ab26 (Fab, V domains shown)
VH: B4 VH with G33S, H35S, A50D, S57T, T58K, V99E, G102D
VL: not shown
notes: ARE set
B6: Ab31 (Fab, V domains shown)
VH: B1 VH with D30S, G33T, N35H, S50N, Y53S, G56S, Y57T, M105L
VL: not shown
notes: ARG set
B7: Ab36 (Fab, V domains shown)
VH: B2 VH with D31S, S33A, R50S, S52K, S55G, V103T
VL: not shown
notes: ARE set
B8: Ab42 (Fab, V domains shown)
VH: B4 VH with A50R, K52N, S54N, S56G, T58K, V99G, M105F
VL: not shown
notes: ARG set
B9: Ab44 (Fab, V domains shown)
VH: B4 VH with G33S, A49S, K52S, S54D, S57Y, T58I, G102D, Y103V, M105F
VL: not shown
notes: ARV set
B10: Ab45 (Fab, V domains shown)
VH: B4 VH with H35N, A50R, K52S, S57Y, T58I, S59G, V99G, M105L
VL: not shown
notes: ARG set
B11: Ab51 (Fab, V domains shown)
VH: B2 VH with D31S, S33A, A49S, R50S, S52K, S54N, S56G, Y57S, L105M
VL: not shown
notes: ARE set
B12: Ab57 (Fab, V domains shown)
VH: B4 VH with G33S, A50Y, S54D, G55T, S57T, T58I, S59G, G102D, Y103V, M105I
VL: not shown
notes: ARV set
B13: Ab65 (Fab, V domains shown)
VH: B2 VH with D31S, S33A, R50Y, S52K, S54N, S55T, S56G, Y57S, K58I
VL: not shown
notes: ARE set
B14: Ab71 (Fab, V domains shown)
VH: B4 VH with G33S, A50S, K52S, G55A, S57T, T58S, S59Y, Y103V, M105I
VL: not shown
notes: ARV set
B15: Ab73 (Fab, V domains shown)
VH: B1 VH with D30S, G33S, N35S, Y53G, S55A, Y57S, K58S, Y59S, G99V, M105L
VL: not shown
notes: ARV set
B16: Ab77 (Fab, V domains shown)
VH: EVQLLESGGGLVQPGGSLRLSCAASGFTFSSYSMNWVRQAPGKGLEWVAAISGNTGYTYYADSVKGRFTISRDNSKNTLYLQMNSLRAEDTAVYYCAREPYSYWMDYWGQGTLVTVSS
VL: not shown
notes: ARE set
B17: Ab79 (Fab, V domains shown)
VH: B4 VH with G33A, A50D, S54N, G55T, S56G, S57Y, S59Y, Y103V, M105I
VL: not shown
notes: ARV set
B18: Ab81 (Fab, V domains shown)
VH: B16 VH with N35H, A50S, S52K, Y57S, T58S, Y59G, E99V, S102D, Y103V, M105I
VL: not shown
notes: ARV set
B19: Ab87 (Fab, V domains shown)
VH: B4 VH with G33S, H35S, A50S, G55A, S56G, S57Y, T58I, G102D, M105I
VL: not shown
notes: ARV set
B20: Ab91 (Fab, V domains shown)
VH: B16 VH with N35S, S52K, N54S, T55A, Y57S, T58S, Y59S, M105L
VL: not shown
notes: ARE set
B21: Ab100 (Fab, V domains shown)
VH: B16 VH with S33A, N35S, A50S, S52N, T55A, Y57T, T58I, Y59S, M105L
VL: not shown
notes: ARE set
B22: Ab101 (Fab, V domains shown)
VH: B4 VH with G33A, H35S, A50D, K52S, S53G, G55A, S56G, S57T, T58I, M105L
VL: not shown
notes: ARV set
B23: Ab111 (Fab, V domains shown)
VH: B4 VH with G33S, A49S, K52S, S53G, S56G, S59Y
VL: not shown
notes: ARV set
B24: Ab117 (Fab, V domains shown)
VH: B2 VH with D31S, S33A, R50A, S52K, S55A, Y57T, K58I, S59Y, L105M
VL: not shown
notes: ARE set; also called clone Ab117
B25: Ab119 (Fab, V domains shown)
VH: B4 VH with G33S, H35S, A50S, G55T, S56G, S57T, T58I, G102D
VL: not shown
notes: ARV set
B26: Ab123 (Fab, V domains shown)
VH: B2 VH with D31S, R50S, S55A, S56G, Y57T, K58S, S102G
VL: not shown
notes: ARE set
B27: Ab128 (Fab, V domains shown)
VH: B4 VH with G33S, H35N, A50S, S53G, G55A, S57Y, G102D, M105I
VL: not shown
notes: ARV set
B28: Ab137 (Fab, V domains shown)
VH: B4 VH with G33S, A50S, S53G, S54N, G55T, S56G, T58I, G102D, M105I
VL: not shown
notes: ARV set
B29: Ab138 (Fab, V domains shown)
VH: B2 VH with D31S, S33A, R50S, S52K, S55T, S56G, Y57T, K58T, S59G, L105I
VL: not shown
notes: ARE set
B30: Ab140 (Fab, V domains shown)
VH: B16 VH with S33A, N35S, A50S, S52N, G53S, Y57S, T58I, Y59G, M105L
VL: not shown
notes: ARE set
B31: Ab146 (Fab, V domains shown)
VH: B4 VH with G33A, A50S, K52S, S53G, S54N, G55A, S56G, T58S, Y103V, M105I
VL: not shown
notes: ARV set
B32: Ab154 (Fab, V domains shown)
VH: B4 VH with G33S, A50S, S54N, G55T, S56G, S57T, S59G
VL: not shown
notes: ARV set
B33: Ab162 (Fab, V domains shown)
VH: B2 VH with D31S, S33A, R50A, S52K, S55A, Y57T, K58I, S59Y, L105M
VL: not shown
notes: ARE set
B34: Ab168 (Fab, V domains shown)
VH: B4 VH with G33A, H35S, A49S, A50S, S54D, G55T, S59Y, V99E, G102S, M105L
VL: not shown
notes: ARE set
B35: Ab173 (Fab, V domains shown)
VH: B4 VH with G33A, H35S, A49S, A50S, K52S, S54N, G55T, S56G, S57T, T58I
VL: not shown
notes: ARV set
B36: Ab183 (Fab, V domains shown)
VH: EVQLLESGGGLVQPGGSLRLSCAASGFTFSSYAMSWVRQAPGKGLEWVSYINSNTGSIGYADSVKGRFTISRDNSKNTLYLQMNSLRAEDTAVYYCAREPYGVWMDYWGQGTLVTVSS
VL: not shown
notes: ARE set
B37: Ab186 (Fab, V domains shown)
VH: B2 VH with D31S, S35H, R50S, S54N, S55A, S56G, K58S, E99V, S102D, L105I
VL: not shown
notes: ARV set
B38: Ab188 (Fab, V domains shown)
VH: B4 VH with G33S, A50S, S54N, G55A, S56G, S57T, T58S, G102D, Y103V, M105I
VL: not shown
notes: ARV set
B39: Ab194 (Fab, V domains shown)
VH: B36 VH with A33S, Y50A, S53G, T55A
VL: not shown
notes: ARE set
B40: Ab199 (Fab, V domains shown)
VH: B4 VH with G33S, A50S, K52S, G55A, S57T, T58S, S59G, Y103V, M105I
VL: not shown
notes: ARV set
B41: Ab150 (Fab, V domains shown)
VH: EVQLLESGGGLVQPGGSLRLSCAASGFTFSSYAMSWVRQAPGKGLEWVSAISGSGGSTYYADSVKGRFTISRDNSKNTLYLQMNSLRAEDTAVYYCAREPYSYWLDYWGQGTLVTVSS
VL: DIQMTQSPSSLSASVGDRVTITCRASQSISSYVAWYQQKPGKAPKLLIYVNTSRASGVPSRFSGSGSGTDFTLTISSLQPEDFATYYCQQWYEFNLTFGGGTKVEIK
notes: ARE set
B42: Ab156 (Fab, V domains shown)
VH: B36 VH with N52S, S53G, T55A, S57Y, G59S, E99V
VL: B41 VL with V33A, V50G, A55Q, W91Y, Y92S, E93N, F94S, N95P
notes: ARV set
B43: Ab158 (Fab, V domains shown)
VH: B16 VH with N35S, S52K, N54S, T55A, Y57T, T58S, Y59G, S102G, M105L
VL: B41 VL with V50G, R54L, A55Q, W91G, Y92D, F94N, N95P
notes: ARE set

The binders below were run against T1, His-tagged recombinant Human TIGIT (assay: ELISA, coated His-tagged human TIGIT).
Method: (§1) Binding affinities for antigen binding to anti-TIGIT monoclonal antibodies were determined by ELISA. […] Antibodies to be tested were diluted to 1 μM in PBS buffer containing 1% BSA and diluted 3-fold in a 10-point curve. […] Detection of the secondary antibody was determined using streptavidin-HRP and TMB reagent. All assays were performed at room temperature. Curve-fitting software was used to determine the EC₅₀ for each antibody.

How did the EC50 turn out when B1 was run?
The EC50 was 1.2 nM.

For B2, which EC50 is on record?
Its EC50 is 25.4 nM.

How did the EC50 turn out when B3 was run?
The EC50 was 27.7 nM.

These binders were tested against T2, His-tagged recombinant Mouse TIGIT (assay: ELISA, coated His-tagged mouse TIGIT).
Method: as §1

Which EC50 does the source give for B4 here?
Its EC50 is 20.9 nM.

How did the EC50 turn out when B5 was run?
The EC50 was 47.5 nM.

Which EC50 does the source give for B6 here?
The EC50 was 56.9 nM.

With B7 as the binder, how does the EC50 read?
The EC50 was 470 nM.

For B8, which EC50 is on record?
The EC50 was 60.5 nM.

B9 was tested. Which EC50 did it give?
The EC50 was 128 nM.

With B10 as the binder, how does the EC50 read?
The EC50 was 48 nM.

Which EC50 does the source give for B11 here?
The EC50 was 79.8 nM.

How did the EC50 turn out when B12 was run?
Its EC50 is 305 nM.

With B13 as the binder, how does the EC50 read?
The EC50 was 778 nM.

For B14, which EC50 is on record?
Its EC50 is 477 nM.

B15 was tested. Which EC50 did it give?
The EC50 was 266 nM.

For B16, which EC50 is on record?
Its EC50 is 111 nM.

For B17, which EC50 is on record?
The EC50 was 86.6 nM.

With B18 as the binder, how does the EC50 read?
The EC50 was 307 nM.

B19 was tested. Which EC50 did it give?
Its EC50 is 230 nM.

For B20, which EC50 is on record?
The EC50 was 242 nM.

B21 was tested. Which EC50 did it give?
Its EC50 is 258 nM.

Which EC50 does the source give for B22 here?
Its EC50 is 535 nM.

How did the EC50 turn out when B23 was run?
Its EC50 is 186 nM.

Which EC50 does the source give for B24 here?
Its EC50 is 10.7 nM.

For B25, which EC50 is on record?
Its EC50 is 279 nM.

B26 was tested. Which EC50 did it give?
The EC50 was 578 nM.

How did the EC50 turn out when B27 was run?
Its EC50 is 265 nM.

B28 was tested. Which EC50 did it give?
Its EC50 is 84.9 nM.

How did the EC50 turn out when B29 was run?
The EC50 was 58.6 nM.

For B30, which EC50 is on record?
Its EC50 is 173 nM.

How did the EC50 turn out when B31 was run?
Its EC50 is 7.8 nM.

Which EC50 does the source give for B32 here?
Its EC50 is 122 nM.

How did the EC50 turn out when B33 was run?
Its EC50 is 20.4 nM.

How did the EC50 turn out when B34 was run?
The EC50 was 253 nM.

With B35 as the binder, how does the EC50 read?
Its EC50 is 64.9 nM.

Which EC50 does the source give for B36 here?
The EC50 was 110 nM.

B37 was tested. Which EC50 did it give?
The EC50 was 429 nM.

Which EC50 does the source give for B38 here?
Its EC50 is 40.3 nM.

How did the EC50 turn out when B39 was run?
Its EC50 is 70.6 nM.

With B40 as the binder, how does the EC50 read?
Its EC50 is 81 nM.

With B41 as the binder, how does the EC50 read?
Its EC50 is 0.7 nM.

Which EC50 does the source give for B42 here?
The EC50 was 164 nM.

With B43 as the binder, how does the EC50 read?
Its EC50 is 156 nM.
